Tests used:
Assay in all cases: cryo-EM structure; human replisome: 150 nM CMG on fork DNA (60 nt or 15 nt 5′ flap) with 1.5-fold molar excess of AND-1, TIMELESS-TIPIN, CLASPIN and Pol α-primase; 25 mM HEPES-NaOH pH 7.6, 150 mM NaOAc, 0.5 mM TCEP, 500 μM AMP-PNP, 10 mM Mg(OAc)2, on ice; 10-30% glycerol gradient with glutaraldehyde and BS3 cross-linkers
[1] = target: T1, human CMG (CDC45-MCM-GINS) replicative helicase (human, UniProt O75419 1-566; P49736 1-904; P25205 1-808; P33991 1-863; P33992 1-734; Q14566 …); conditions: both partners purified
T1 construct: CDC45, human; MCM2, human; MCM3, human; MCM4, human; MCM5, human; MCM6, human; MCM7, human; PSF1, subunit of GINS, human; PSF2, subunit of GINS, human; PSF3, subunit of GINS, human; SLD5, subunit of GINS, human; the subunits are named in the methods for the MCM3-4A form, which was made as the wild type; copies: + + + + + + + + + +

[2] = target: T2, POLA1 (human Pol α catalytic subunit) (human, UniProt P09884 1-1462); conditions: both partners purified
T2 construct: POLA1, human; modelled residues 1279-1445 and 1448-1458 (CTD); stood in the assay as a subunit of m18; also called POLA1CTD; POLA1_(exo-cat)
T2 sequence: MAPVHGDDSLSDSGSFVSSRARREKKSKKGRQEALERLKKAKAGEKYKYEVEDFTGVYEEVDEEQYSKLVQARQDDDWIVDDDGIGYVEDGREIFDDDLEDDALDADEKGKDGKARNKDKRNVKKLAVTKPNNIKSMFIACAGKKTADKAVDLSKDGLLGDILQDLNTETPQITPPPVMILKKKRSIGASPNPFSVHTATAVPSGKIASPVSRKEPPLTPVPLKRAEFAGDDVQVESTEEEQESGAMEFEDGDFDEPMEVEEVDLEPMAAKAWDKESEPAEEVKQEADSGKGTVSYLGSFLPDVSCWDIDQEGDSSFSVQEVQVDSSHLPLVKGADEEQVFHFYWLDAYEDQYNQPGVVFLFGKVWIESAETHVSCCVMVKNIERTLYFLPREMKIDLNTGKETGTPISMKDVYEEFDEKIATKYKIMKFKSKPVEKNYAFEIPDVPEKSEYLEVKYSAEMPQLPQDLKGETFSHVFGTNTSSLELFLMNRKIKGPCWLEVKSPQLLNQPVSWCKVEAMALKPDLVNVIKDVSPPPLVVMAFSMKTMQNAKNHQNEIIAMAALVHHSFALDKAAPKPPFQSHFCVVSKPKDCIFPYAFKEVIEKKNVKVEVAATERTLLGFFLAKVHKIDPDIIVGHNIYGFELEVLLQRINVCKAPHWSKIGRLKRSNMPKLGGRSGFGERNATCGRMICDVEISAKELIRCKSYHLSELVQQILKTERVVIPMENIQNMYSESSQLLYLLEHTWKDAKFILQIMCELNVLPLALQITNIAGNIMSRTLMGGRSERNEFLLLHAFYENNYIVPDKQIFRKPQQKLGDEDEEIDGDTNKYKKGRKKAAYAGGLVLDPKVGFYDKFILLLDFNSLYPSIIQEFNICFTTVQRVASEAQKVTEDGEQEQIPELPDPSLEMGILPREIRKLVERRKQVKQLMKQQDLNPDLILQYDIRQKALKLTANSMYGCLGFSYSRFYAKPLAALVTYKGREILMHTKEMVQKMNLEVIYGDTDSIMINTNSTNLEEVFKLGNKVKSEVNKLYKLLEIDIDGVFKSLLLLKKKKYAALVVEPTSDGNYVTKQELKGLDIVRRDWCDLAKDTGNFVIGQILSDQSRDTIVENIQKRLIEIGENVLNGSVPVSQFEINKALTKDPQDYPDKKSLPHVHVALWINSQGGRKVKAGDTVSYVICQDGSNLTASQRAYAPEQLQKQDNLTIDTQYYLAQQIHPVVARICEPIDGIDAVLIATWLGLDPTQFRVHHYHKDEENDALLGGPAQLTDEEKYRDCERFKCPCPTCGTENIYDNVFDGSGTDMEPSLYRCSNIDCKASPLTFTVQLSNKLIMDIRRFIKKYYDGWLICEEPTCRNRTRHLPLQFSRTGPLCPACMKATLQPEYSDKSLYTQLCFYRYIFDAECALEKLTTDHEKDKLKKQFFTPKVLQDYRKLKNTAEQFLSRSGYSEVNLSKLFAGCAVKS

[3] = target: the molecule itself

B1: AND-1 (human) (natural protein)
chain: MPATRKPMRYGHTEGHTEVCFDDSGSFIVTCGSDGDVRIWEDLDDDDPKFINVGEKAYSCALKSGKLVTAVSNNTIQVHTFPEGVPDGILTRFTTNANHVVFNGDGTKIAAGSSDFLVKIVDVMDSSQQKTFRGHDAPVLSLSFDPKDIFLASASCDGSVRVWQISDQTCAISWPLLQKCNDVINAKSICRLAWQPKSGKLLAIPVEKSVKLYRRESWSHQFDLSDNFISQTLNIVTWSPCGQYLAAGSINGLIIVWNVETKDCMERVKHEKGYAICGLAWHPTCGRISYTDAEGNLGLLENVCDPSGKTSSSKVSSRVEKDYNDLFDGDDMSNAGDFLNDNAVEIPSFSKGIINDDEDDEDLMMASGRPRQRSHILEDDENSVDISMLKTGSSLLKEEEEDGQEGSIHNLPLVTSQRPFYDGPMPTPRQKPFQSGSTPLHLTHRFMVWNSIGIIRCYNDEQDNAIDVEFHDTSIHHATHLSNTLNYTIADLSHEAILLACESTDELASKLHCLHFSSWDSSKEWIIDLPQNEDIEAICLGQGWAAAATSALLLRLFTIGGVQKEVFSLAGPVVSMAGHGEQLFIVYHRGTGFDGDQCLGVQLLELGKKKKQILHGDPLPLTRKSYLAWIGFSAEGTPCYVDSEGIVRMLNRGLGNTWTPICNTREHCKGKSDHYWVVGIHENPQQLRCIPCKGSRFPPTLPRPAVAILSFKLPYCQIATEKGQMEEQFWRSVIFHNHLDYLAKNGYEYEESTKNQATKEQQELLMKMLALSCKLEREFRCVELADLMTQNAVNLAIKYASRSRKLILAQKLSELAVEKAAELTATQVEEEEEEEDFRKKLNAGYSNTATEWSQPRFRNQVEEDAEDSGEADDEEKPEIHKPGQNSFSKSTNSSDVSAKSGAVTFSSQGRVNPFKVSASSKEPAMSMNSARSTNILDNMGKSSKKSTALSRTTNNEKSPIIKPLIPKPKPKQASAASYFQKRNSQTNKTEEVKEENLKNVLSETPAICPPQNTENQRPKTGFQMWLEENRSNILSDNPDFSDEADIIKEGMIRFRVLSTEERKVWANKAKGETASEGTEAKKRKRVVDESDETENQEEKAKENLNLSKKQKPLDFSTNQKLSAFAFKQE
notes: AND-1, human (Ctf4 in budding yeast)
- binding result [1]: binds
- binding result [2]: binds
- stoichiometry N [3]: 3

Reference: article PMC10501992, “How Pol α-primase is targeted to replisomes to prime eukaryotic DNA replication” (Molecular Cell, 2023)
